Values joined by “and” are separate entries in the source; they are usually repeats but may differ in a detail not shown here. Identical values can stand only once.
B1: humanized 3B9 (IgG4 variant) (antibody, V domains shown)
VH: QVTLRESGPALVKPTQTLTLTCTFSGFSLSTSGMGVSWIRQPPGKGLEWLAHIYWDDDKRYNPSLKSRLTISKDTSRNQVVLTMTNMDPVDTATYYCARRETVFYWYFDVWGRGTPVTVSS
VL: IVMTQSPDSLAVSLGERATINCKASQSVDYDGDSYMNWYQQKPGQPPKLLIYAASNLESGVPDRFSGSGSGTDFTLTISSLQAEDVAVYYCQQSNEDPPRFGGGTKVEIKR
B2: humanized 3B9 (IgG1) (antibody, V domains shown)
VH: B1 VH
VL: B1 VL
notes: Human IgG1 heavy constant region and human kappa constant region; also called humanized MAb 3B9; 3B9 (Humanized)
B3: recombinant human IL4 (non-glycosylated, produced in E. coli) (ligand, UniProt P05112 25-153, looked up)
chain: HKCDITLQEIIKTLNSLTEQKTLCTELTVTDIFAASKNTTEKETFCRAATVLRQFYSHHEKDTRCLGATAQQFHRHKQLIRFLKRLDRNLWGLAGLNSCPVKEANQSTLENFLERLKTIMREKYSKCSS
notes: also called hIL4; hIL-4

Assays:
[1] = target: B3; assay: cell-based or functional assay
[2] = target: B3; assay: titration microcalorimetry, calculated for pH 7.4, 150 mM NaCl, 25° C. by the Gibbs-Helmholz equation
Description: (§1) The affinity and detailed thermodynamics of IL4 binding to humanized MAb 3B9 and murine 3B9 (Example 1) were determined by titration microcalorimetry.

[3] = target: B3; assay: titration microcalorimetry, pH 7.4, 150 mM NaCl, 25° C.
Description: as §1

[4] = target: T1, IL4 receptor on the gibbon cell line MLA [ATCC TIB201] (gibbon); assay: displacement of 125I-rhIL4 (83 pM) from gibbon MLA cells
T1 construct: whole, on cells; also called its receptor
Description: The ability of 3B9 to inhibit the binding of IL4 to its receptor was studied using ¹²⁵I-rhIL4 binding to the gibbon cell line, MLA [ATCC TIB201], that bears approximately 6000 receptors per cell. MLA cells were incubated with […] for 30 minutes at 37° C. Uptake of radioactivity was determined in a gamma counter after separation of cell bound ¹²⁵I-IL4 by centrifugation through an oil-gradient. Non-specific binding was determined by incubating in the presence of a 100-fold molar excess of unlabelled IL4 [Park et al, J. Exp. Med., 166:476-488 (1987)]. The IC₅₀ value for unlabeled IL4 in this assay was 22 pM when the amount of (added) IL4 was 83 pM. For intact murine (IgG) 3B9 the IC₅₀ was 63 pM, and 93 pM for the Fab fragment.

Row | IC50, B cell proliferation [1] [nM] | IC50, IgE synthesis [1] | IC50, T cell proliferation [1] | Kd [2] [nM] | -TΔS [3] [kcal/mol IL4] | ΔG [3] [kcal/mol IL4] | ΔH [3] [kcal/mol IL4] | IC50, CD23 induction [1] [nM] | IC50 [4] [nM] | Binder
1 | 0.079 | 0.406 nM | 0.04 nM |  |  |  |  |  |  | B1
2 |  | 0.054 nM and 0.035 nM and 0.083 nM | 0.044 nM and 0.03 nM and 0.056 nM | 0.011 | 8.2 | -13.6 | -21.8 | 0.333 |  | B2
3 |  |  |  |  |  |  |  |  | 0.022 | B3
